{
  "source": "patent US20230036503A1",
  "about": "“Fusion Protein, Amino Acid Sequence Thereof, Coding Nucleotide Sequence Thereof, Preparation Method Thereof and Use Thereof” (priority 2019, published 2023)",
  "molecules": {"B1": {"name": "His-MP7: heptapeptide fusion protein, SEQ ID NO: 15: elf18, csp22, flg22, flgII-28, nlp20, pep1, pip1 in sequence, linkers GAG and AGA, HIS tag (protein)", "chain": "MGSSHHHHHHSSGLVPRGSHMASMTGGQQMGRDPNSSSVDKLSKEKFERTKPHVNVGTIGGAGAVGTVKWFNAEKGFGFITPDDGAGAQRLSTGSRINSAKDDAAGLQIAGAGESTNILQRMRELAVQSRNDSNSATDREAGAGAIMYSWYFPKDSPVTGLGHRAGAATKVKAKQRGKEKVSSGRPGQHNAGARLASGPSPRGRGH", "modifications": "his-MP7"}},
  "system": "Fusarium graminearum",
  "assay_type": "in vivo",
  "conditions": "corn leaves, 100 nM",
  "data": [
    {"molecule": "B1", "values": [
      {"measurement": "scab area percentage", "setting": "3-4 days, untreated 12.3%", "result": 3.6, "unit": "%"},
      {"measurement": "infection rate of Fusarium graminearum lowered by", "setting": "versus untreated", "result": 70.8, "unit": "%"}
    ]}
  ]
}
